Test results as given in PMC3130887 (Nature structural & molecular biology, 2011).
Values belong to the molecule of their own block, whether it stands above or below them.

Legend:
[1] = molecular target: ADD_(ATRX) (ATRX fragment 167–289) (human) (UniProt P46100); test: ITC
ADDATRX = molecular target: T1, ADDATRX (Homo sapiens, UniProt P46100, F284Y/K251R); type: binding; details: wild type ADDATRX; Kd n.d. in Fig. 4b
T1 sequence (P46100 167-289 K251R/F284Y): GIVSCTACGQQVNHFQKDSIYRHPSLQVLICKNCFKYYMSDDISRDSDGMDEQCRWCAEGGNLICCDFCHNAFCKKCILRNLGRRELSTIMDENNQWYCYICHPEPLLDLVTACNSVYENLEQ

[2] = molecular target: ADD_(ATRX) Y203A mutant (purified, for ITC) (human) (UniProt P46100); test: ITC
[3] = molecular target: unmodified H3 tail (as used in the SPR assay); test: SPR

Molecule: H3_(1–15)K9me3 peptide (from UniProt P68431 2-16)
Kd [2]: 4.6 µM | dH [2]: -4.7 kcal/mol

B1: ADD_(ATRX) (as used in the SPR assay) (domain or fragment)
chain: KRGEDGLHGIVSCTACGQQVNHFQKDSIYRHPSLQVLICKNCFKYYMSDDISRDSDGMDEQCRWCAEGGNLICCDFCHNAFCKKCILRNLGRKELSTIMDENNQWYCYICHPEPLLDLVTACNSVFENLEQLLQQNKK
Kd [3]: 3.2 µM

The next lines start with the values.

Kd [1]: 4.9 µM | dH [1]: -12 kcal/mol
Molecule: H3 peptide trimethylated at both Lys4 and Lys9

binding in ITC titration (ADDATRX): totally lost
Molecule: H3_5–13K9me3: synthetic H3 peptide, residues 5–13, Lys9 trimethylated (QTARKSTGG; trimethyl-lysine at 9)
